Assay results taken from article PMC6259326, “Study on Suitability of KOD DNA Polymerase for Enzymatic Production of Artificial Nucleic Acids Using Base/Sugar Modified Nucleoside Triphosphates” (Molecules, 2010).

Legend:
[1] = substrate: Cc1cn([C@H]2C[C@H](O)[C@@H](COP(=O)(O)OP(=O)(O)OP(=O)(O)O)O2)c(=O)[nH]c1=O; test: single nucleotide primer extension, 6-FAM primer, denaturing PAGE; type: biochemical, Thermococcus litoralis; conditions: apparent Km, 40 °C, primer P1 / template T1, correct insertion, 0.0125 U/μL enzyme
Excerpt: (§1) single nucleotide primer extension, 6-FAM primer, denaturing PAGE on Vent(exo-) DNA polymerase

[2] = substrate: NCCCCCCNC(=O)Cc1cn([C@@H]2O[C@H](COP(=O)(O)OP(=O)(O)OP(=O)(O)O)[C@@H](O)[C@@H]2O)c(=O)[nH]c1=O; test: as above; type: biochemical, Thermococcus litoralis; conditions: apparent Km, 40 °C, primer P1 / template T1, correct insertion, 0.0125 U/μL enzyme
Excerpt: as §1

[3] = substrate: NCCCCCCNC(=O)Cc1cn([C@H]2C[C@H](O)[C@@H](COP(=O)(O)OP(=O)(O)OP(=O)(O)O)O2)c(=O)[nH]c1=O; test: as above; type: biochemical, Thermococcus litoralis; conditions: apparent Km, 40 °C, primer P1 / template T1, correct insertion, 0.0125 U/μL enzyme
Excerpt: as §1

[4] = substrate: Nc1ccn([C@H]2C[C@H](O)[C@@H](COP(=O)(O)OP(=O)(O)OP(=O)(O)O)O2)c(=O)n1; test: purified protein; conditions: apparent Km, 40 °C, primer P1 / template T1, misinsertion, 0.0125 U/μL enzyme

B1: Vent(exo-) DNA polymerase (Thermococcus litoralis; D141A/E143A) (protein)
chain 1: MILDTDYITKDGKPIIRIFKKENGEFKIELDPHFQPYIYALLKDDSAIEEIKAIKGERHGKTVRVLDAVKVRKKFLGREVEVWKLIFEHPQDVPAMRGKIREHPAVVDIYEYDIPFAKRYLIDKGLIPMEGDEELKLLAFAIATFYHEGDEFGKGEIIMISYADEEEARVITWKNIDLPYVDVVSNEREMIKRFVQVVKEKDPDVIITYNGDNFDLPYLIKRAEKLGVRLVLGRDKEHPEPKIQRMGDSFAVEIKGRIHFDLFPVVRRTINLPTYTLEAVYEAVLGKTKSKLGAEEIAAIWETEESMKKLAQYSMEDARATYELGKEFFPMEAELAKLIGQSVWDVSRSSTGNLVEWYLLRVAYARNELAPNKPDEEEYKRRLRTTYLGGYVKEPEKGLWENIIYLDFRSLYPSIIVTHNVSPDTLEKEGCKNYDVAPIVGYRFCKDFPGFIPSILGDLIAMRQDIKKKMKSTIDPIEKKMLDYRQRAIKLLAN
chain 2: SYYGYMGYPKARWYSKECAESVTAWGRHYIEMTIREIEEKFGFKVLYAD
chain 3: TDGFYATIPGEKPELIKKKAKEFLNYINSKLPGLLELEYEGFYLRGFFVTKKRYAVIDEEGRITTRGLEVVRRDWSEIAKETQAKVLEAILKEGSVEKAVEVVRDVVEKIAKYRVPLEKLVIHEQITRDLKDYKAIGPHVAIAKRLAARGIKVKPGTIISYIVLKGSGKISDRVILLTEYDPRKHKYDPDYYIENQVLPAVLRILEAFGYRKEDLRYQSSKQTGLDAWLKR
notes: commercial exonuclease-deficient enzyme (New England Biolabs), mature intein-free form
Km [1]: 3 µM | kcat [1]: 0.00567 s⁻¹ | Km [2]: 4.4 µM | kcat [2]: 0.000817 s⁻¹ | Km [3]: 2.7 µM | kcat [3]: 0.00483 s⁻¹ | Km [4]: 1700 µM | kcat [4]: 0.00233 s⁻¹
